Measurements from patent US20040091492A1.

What was measured:
[1] = target: HLA-A3 on Hmy2.C1R-A3 transfectant cells with the pn2a.A3 peptide (human)
[2] = target: HLA-A2 on Hmy2.C1R-A2 transfectant cells with the HIV gag 77-85 peptide (human), A*02:0
[3] = target: HLA-A3 on Hmy2.C1R-A3 transfectant cells with the pn2a.A3 peptide (human); remark: listed apart in the source
[4] = target: HLA-A2 on Hmy2.C1R-A2 target cells pulsed with HTLV-1 TAX 11-19 peptide (human), A*02:0; experiment: cell-based or functional assay
[5] = target: HLA-A1 on Hmy2.C1R-A1 transfectant cells with the OD 309 peptide (ornithine decarboxylase 309-317) (human); experiment: competition with 2.5 µM myc-hβ2m on Hmy2.C1R-A1 cells with OD 309 peptide, 9E10 flow cytometry
[6] = target: HLA-A1 on Hmy2.C1R-A1 transfectant cells with the OD 309 peptide (ornithine decarboxylase 309-317) (human); experiment: HLA stabilization assay, acid-stripped Hmy2.C1R-A1 cells with OD 309 peptide and BB7.5 mAb, flow cytometry

In the case of “hβ2m S55V (human β2-microglobulin with valine at position 55 of the mature protein) (from UniProt P61769 21-119)”, the fold better stabilization than wild-type hβ2m [1] is reported as 3 fold, the fold better inhibition of myc-hβ2m binding than wild-type hβ2m [2] is reported as 2.5 fold and the fold better inhibition of myc-hβ2m binding than wild-type hβ2m [3] is reported as 2.5 fold. For the same substance, the fold more effective than wild-type hβ2m at enhancing target cell lysis (CTL lysis assay) [4] was 4 fold, the fold better inhibition of myc-hβ2m binding than wild-type hβ2m [5] was 2.5 fold and the fold better stabilization than wild-type hβ2m [6] was 2 fold.
